Results as given in publication PMC12611769, “Phase-separated NDF−FACT condensates facilitate transcription elongation on chromatin” (Nature Cell Biology, 2025).

B1: NDF_K161A, full-length, His6-tagged (natural protein, human, UniProt Q49A26 1-553, looked up)
chain: MAAVSLRLGDLVWGKLGRYPPWPGKIVNPPKDLKKPRGKKCFFVKFFGTEDHAWIKVEQLKPYHAHKEEMIKINKGKRFQQAVDAVEEFLRRAKGKDQTSSHNSSDDKNRRNSSEERSRPNSGDEKRKLSLSEGKVKKNMGEGKKRVSSGSSERGSKSPLARAQEQSPRKRGRPPKDEKDLTIPESSTVKGMMAGPMAAFKWQPTASEPVKDADPHFHHFLLSQTEKPAVCYQAITKKLKICEEETGSTSIQAADSTAVNGSITPTDKKIGFLGLGLMGSGIVSNLLKMGHTVTVWNRTAEKCDLFIQEGARLGRTPAEVVSTCDITFACVSDPKAAKDLVLGPSGVLQGIRPGKCYVDMSTVDADTVTELAQVIVSRGGRFLEAPVSGNQQLSNDGMLVILAAGDRGLYEDCSSCFQAMGKTSFFLGEVGNAAKMMLIVNMVQGSFMATIAEGLTLAQVTGQSQQTLLDILNQGQLASIFLDQKCQNILQGNFKPDFYLKYIQKDLRLAIALGDAVNHPTPMAAAANEVYKRAKALDQSDNDMSAVYRAYIH
notes: human NDF (Glyr1), full-length, K161A; source: bacterial expression (pET21b), purified
B2: NDF_R162A, full-length, His6-tagged (natural protein, human, UniProt Q49A26 1-553, looked up)
chain: MAAVSLRLGDLVWGKLGRYPPWPGKIVNPPKDLKKPRGKKCFFVKFFGTEDHAWIKVEQLKPYHAHKEEMIKINKGKRFQQAVDAVEEFLRRAKGKDQTSSHNSSDDKNRRNSSEERSRPNSGDEKRKLSLSEGKVKKNMGEGKKRVSSGSSERGSKSPLKAAQEQSPRKRGRPPKDEKDLTIPESSTVKGMMAGPMAAFKWQPTASEPVKDADPHFHHFLLSQTEKPAVCYQAITKKLKICEEETGSTSIQAADSTAVNGSITPTDKKIGFLGLGLMGSGIVSNLLKMGHTVTVWNRTAEKCDLFIQEGARLGRTPAEVVSTCDITFACVSDPKAAKDLVLGPSGVLQGIRPGKCYVDMSTVDADTVTELAQVIVSRGGRFLEAPVSGNQQLSNDGMLVILAAGDRGLYEDCSSCFQAMGKTSFFLGEVGNAAKMMLIVNMVQGSFMATIAEGLTLAQVTGQSQQTLLDILNQGQLASIFLDQKCQNILQGNFKPDFYLKYIQKDLRLAIALGDAVNHPTPMAAAANEVYKRAKALDQSDNDMSAVYRAYIH
notes: human NDF (Glyr1), full-length, R162A; source: bacterial expression (pET21b), purified
B3: His6-hNDF, full-length wild type (natural protein, human, UniProt Q49A26 1-553, looked up)
chain: MAAVSLRLGDLVWGKLGRYPPWPGKIVNPPKDLKKPRGKKCFFVKFFGTEDHAWIKVEQLKPYHAHKEEMIKINKGKRFQQAVDAVEEFLRRAKGKDQTSSHNSSDDKNRRNSSEERSRPNSGDEKRKLSLSEGKVKKNMGEGKKRVSSGSSERGSKSPLKRAQEQSPRKRGRPPKDEKDLTIPESSTVKGMMAGPMAAFKWQPTASEPVKDADPHFHHFLLSQTEKPAVCYQAITKKLKICEEETGSTSIQAADSTAVNGSITPTDKKIGFLGLGLMGSGIVSNLLKMGHTVTVWNRTAEKCDLFIQEGARLGRTPAEVVSTCDITFACVSDPKAAKDLVLGPSGVLQGIRPGKCYVDMSTVDADTVTELAQVIVSRGGRFLEAPVSGNQQLSNDGMLVILAAGDRGLYEDCSSCFQAMGKTSFFLGEVGNAAKMMLIVNMVQGSFMATIAEGLTLAQVTGQSQQTLLDILNQGQLASIFLDQKCQNILQGNFKPDFYLKYIQKDLRLAIALGDAVNHPTPMAAAANEVYKRAKALDQSDNDMSAVYRAYIH
notes: human nucleosome destabilizing factor (NDF; Glyr1), full-length; vector name has His6 before hNDF, a legend prints 'NDF-his'; also called NDF-his; His6-tagged NDF-WT; source: bacterial expression (pET21b-His6-hNDF), purified as previously described
B4: hNDF-FLAG (recombinant NDF-Flag) (natural protein, human, UniProt Q49A26 1-553, looked up)
chain: MAAVSLRLGDLVWGKLGRYPPWPGKIVNPPKDLKKPRGKKCFFVKFFGTEDHAWIKVEQLKPYHAHKEEMIKINKGKRFQQAVDAVEEFLRRAKGKDQTSSHNSSDDKNRRNSSEERSRPNSGDEKRKLSLSEGKVKKNMGEGKKRVSSGSSERGSKSPLKRAQEQSPRKRGRPPKDEKDLTIPESSTVKGMMAGPMAAFKWQPTASEPVKDADPHFHHFLLSQTEKPAVCYQAITKKLKICEEETGSTSIQAADSTAVNGSITPTDKKIGFLGLGLMGSGIVSNLLKMGHTVTVWNRTAEKCDLFIQEGARLGRTPAEVVSTCDITFACVSDPKAAKDLVLGPSGVLQGIRPGKCYVDMSTVDADTVTELAQVIVSRGGRFLEAPVSGNQQLSNDGMLVILAAGDRGLYEDCSSCFQAMGKTSFFLGEVGNAAKMMLIVNMVQGSFMATIAEGLTLAQVTGQSQQTLLDILNQGQLASIFLDQKCQNILQGNFKPDFYLKYIQKDLRLAIALGDAVNHPTPMAAAANEVYKRAKALDQSDNDMSAVYRAYIH
notes: human nucleosome destabilizing factor (NDF; Glyr1); source: bacterial expression (pET21b-hNDF-FLAG), purified as previously described

What was measured:
Conditions in all cases: both partners purified
[1] = target: T1, Flag-tagged hSpt16 (human, UniProt Q9Y5B9 1-1047); experiment: pull-down; Ni-NTA beads, His6-tagged NDF (WT, truncates or mutants; 40 pmol) as bait with 20 pmol Flag-tagged hSpt16 or FACT in 300 µl of 10 mM Tris-HCl pH 7.5, 200 mM NaCl, 0.2% Nonidet P-40, 10% glycerol, 4 °C 3 h; SDS-PAGE, silver staining
T1 construct: human SUPT16H (hSpt16); methods print 'Flag-hSpt16', legends 'Spt16-FLAG'; also called Spt16-FLAG; Flag-hSpt16; source: Sf9 cells (pFastBac-FLAG-hSpt16), purified; also co-expressed with untagged hSSRP1 in Sf9, in cell extract

[2] = target: T2, Flag-tagged FACT complex (Flag-hSpt16 + untagged hSSRP1) (human, UniProt Q9Y5B9 1-1047; Q08945 1-709); experiment: co-sedimentation; sedimentation assay of condensates: NDF and FACT mixed in a 100 mM NaCl buffer without PEG, 10 min at 22 °C, 17,200g 10 min; supernatant and pellet on SDS-PAGE, Coomassie
T2 construct: human SUPT16H (hSpt16); human SSRP1, untagged; complex formed beforehand by co-expression; also called FACT-FLAG; hFACT; source: Sf9 cells, co-expressed, purified (anti-Flag M2 agarose, 3x Flag peptide elution)

[3] = target: T3, FACT complex used as prey in the FLAG pull-down with NDF-Flag (his-FACT) (human, UniProt Q9Y5B9 1-1047; Q08945 1-709); experiment: pull-down; Flag M2 beads, NDF-Flag as bait; 10 mM Tris-HCl pH 7.5, 200 mM NaCl, 0.2% Nonidet P-40, 10% glycerol, 4 °C 3 h; SDS-PAGE, silver staining
T3 construct: human SUPT16H (hSpt16); human SSRP1; the his-tagged subunits are surmised because the bait was held on Flag M2 beads; source: Sf9 cells (Bac-to-Bac), his-FACT subunits expressed separately, purified similar to his-hNDF

[4] = target: T4, His6-hSpt16 (recombinant his-tagged Spt16 subunit of FACT) (human, UniProt Q9Y5B9 1-1047); experiment: as above
T4 construct: human SUPT16H (hSpt16); The His6 tag was inserted into pFastBac-FLAG-hSpt16; also called his-FACT subunit; source: Sf9 cells (Bac-to-Bac), expressed separately, purified similar to his-hNDF
T4 sequence (Q9Y5B9 whole entry): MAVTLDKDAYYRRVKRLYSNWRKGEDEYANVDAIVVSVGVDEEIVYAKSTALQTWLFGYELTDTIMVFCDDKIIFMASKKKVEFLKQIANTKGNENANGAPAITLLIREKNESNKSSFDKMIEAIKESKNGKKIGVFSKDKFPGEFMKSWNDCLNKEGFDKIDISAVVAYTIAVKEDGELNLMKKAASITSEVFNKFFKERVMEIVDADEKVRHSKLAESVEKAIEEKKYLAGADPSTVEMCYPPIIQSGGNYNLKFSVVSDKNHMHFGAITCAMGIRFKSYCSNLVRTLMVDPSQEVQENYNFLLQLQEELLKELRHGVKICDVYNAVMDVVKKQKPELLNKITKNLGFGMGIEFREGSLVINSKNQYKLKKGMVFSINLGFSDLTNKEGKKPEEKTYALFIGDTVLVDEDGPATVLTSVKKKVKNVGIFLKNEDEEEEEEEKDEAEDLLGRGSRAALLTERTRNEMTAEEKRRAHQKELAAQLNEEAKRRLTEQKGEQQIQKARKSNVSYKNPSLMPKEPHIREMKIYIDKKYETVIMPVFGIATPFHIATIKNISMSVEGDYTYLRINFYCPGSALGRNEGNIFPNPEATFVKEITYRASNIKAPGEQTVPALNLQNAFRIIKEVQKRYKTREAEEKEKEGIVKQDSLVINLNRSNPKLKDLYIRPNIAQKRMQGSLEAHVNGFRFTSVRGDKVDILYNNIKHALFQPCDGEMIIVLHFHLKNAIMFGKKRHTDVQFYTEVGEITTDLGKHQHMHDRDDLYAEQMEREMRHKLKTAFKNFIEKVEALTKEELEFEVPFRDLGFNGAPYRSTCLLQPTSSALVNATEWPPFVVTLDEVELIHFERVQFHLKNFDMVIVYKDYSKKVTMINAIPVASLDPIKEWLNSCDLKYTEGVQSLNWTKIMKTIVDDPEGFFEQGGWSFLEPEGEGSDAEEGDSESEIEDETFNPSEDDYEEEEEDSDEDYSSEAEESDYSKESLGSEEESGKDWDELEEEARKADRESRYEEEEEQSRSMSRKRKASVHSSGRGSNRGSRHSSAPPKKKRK

T1 sequence (Q9Y5B9 whole entry, the tested form may be a part): as the sequence (Q9Y5B9 whole entry) above
T3 sequence (Q9Y5B9 whole entry, chain 1 of 2): as the sequence (Q9Y5B9 whole entry) above
T3 sequence (Q08945 whole entry, chain 2 of 2): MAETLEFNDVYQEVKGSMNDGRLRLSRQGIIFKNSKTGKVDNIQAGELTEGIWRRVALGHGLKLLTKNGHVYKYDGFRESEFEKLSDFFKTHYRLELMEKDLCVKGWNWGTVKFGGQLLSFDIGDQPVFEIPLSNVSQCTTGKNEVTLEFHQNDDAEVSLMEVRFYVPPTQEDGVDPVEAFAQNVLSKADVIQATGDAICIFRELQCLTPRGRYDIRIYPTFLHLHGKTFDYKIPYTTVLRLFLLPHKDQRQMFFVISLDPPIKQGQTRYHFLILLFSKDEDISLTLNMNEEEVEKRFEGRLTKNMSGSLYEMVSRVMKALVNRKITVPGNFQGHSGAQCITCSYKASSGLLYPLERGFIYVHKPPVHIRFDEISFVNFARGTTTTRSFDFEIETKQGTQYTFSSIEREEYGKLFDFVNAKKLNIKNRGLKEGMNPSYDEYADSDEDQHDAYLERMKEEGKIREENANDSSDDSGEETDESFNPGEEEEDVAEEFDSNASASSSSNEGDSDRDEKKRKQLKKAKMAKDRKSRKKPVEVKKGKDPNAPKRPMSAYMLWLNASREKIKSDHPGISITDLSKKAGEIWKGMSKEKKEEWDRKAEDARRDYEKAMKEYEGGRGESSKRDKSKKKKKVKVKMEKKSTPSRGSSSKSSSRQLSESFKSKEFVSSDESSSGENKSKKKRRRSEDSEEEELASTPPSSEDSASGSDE
T2 sequence (Q9Y5B9 whole entry, chain 1 of 2): as the sequence (Q9Y5B9 whole entry) above
T2 sequence (Q08945 whole entry, chain 2 of 2): as the sequence (Q08945 whole entry, chain 2 of 2) above

Row | Binder | binding result [1] | binding result [2] | binding result [3] | binding result [4]
1 | B1 | binds | – | – | –
2 | B2 | binds | – | – | –
3 | B3 | binds | binds | – | –
4 | B4 | – | – | binds | binds
